In publication PMC4789653, “Atomic visualization of a flipped-back conformation of bisected glycans bound to specific lectins” (Scientific Reports, 2016):

Target: the molecule itself
Assay: crystal structure; PHA-E (9 mg/ml, 20 mM Tris-HCl pH 8.0, 100 mM NaCl) with 0.6 mM bisected glycan 2; crystals from 0.1 M sodium acetate pH 4.5, 25% PEG3,350, 20 °C; 3.0 Å

B1: phytohemagglutinin from Phaseolus vulgaris (PHA-E) (natural protein, UniProt P05088 22-275, looked up)
chain: ASQTSFSFQRFNETNLILQRDATVSSKGQLRLTNVNDNGEPTLSSLGRAFYSAPIQIWDNTTGAVAASPTSFTFNIDVPNNSGPADGLAFVLLPVGSQPKDKGGLLGLFNNYKYDSNAHTVAVEFDTLYNVHWDPKPRHIGIDVNSIKSIKTTTWDFVKGENAEVLITYDSSTKLLVASLVYPSLKTSFIVSDTVDLKSVLPEWVIVGFTATTGITKGNVETNDILSWSFASKLSDGTTSEALNLANFALNQIL
notes: erythroagglutinating phytohemagglutinin (PHA-E), legume lectin from Phaseolus vulgaris; 120 kDa as tetramer; Crystallised with bisected glycan 2; eight subunits in the asymmetric unit; also called E4-PHA; PHA-E lectin; source: purified from Phaseolus vulgaris; bought: J-Oil Mills
  stoichiometry N: 4
